Experiments:
Biotinylated Abeta40 = biological target: T1, Biotinylated Abeta40 (UniProt P05067 672-711, biotinylated (site not stated)); assay: ELISA, biotinylated Abeta40 on neutravidin plates, ESBA212 0 to 500 nM
T1 construct: domain: Abeta40 (40 amino acid peptide); Captured on neutravidin-coated ELISA plates; also called beta-amyloid40
Description: (§1) The binding properties of ESBA212 were tested in an ELISA where Abeta40 and Abeta42, respectively, were used as antigens. 96-well plates were coated with 5 μg/ml neutravidin in dilution buffer (PBS/0.01% BSA/0.2% Tween-20) and incubated overnight at 4° C. The plates were then washed 3 times with TBS/0.005% Tween-20. Biotinylated Abeta40 or Abeta42 (1 μg/ml in dilution buffer) were added to each well and the plate incubated for 15 minutes at room temperature. Plates were washed as above and non-specific binding sites were blocked by addition of dilution buffer. The plates were incubated for another 1.5 hours at room temperature while shaking. After washing the prepared ESBA212 dilutions from 0 to 500 nM were added in triplicates to the wells and incubated for 1 hour at room temperature (RT) while shaking. Plates were washed and ESBA212 was detected by a purified rabbit polyclonal anti-ESBA212 antibody (1:10000 in dilution buffer) for 1 hour at RT. After washing a horseradish peroxidase-labelled anti-rabbit IgG (1:4000 in dilution buffer) was used to detect the previously bound rabbit antibodies and […]. The reaction was stopped by addition of 1 M HCl and the absorption read at 450 nm.
(§2) From the measured ESBA212 curve an EC50 could be calculated.

Biotinylated Abeta42 = biological target: T2, Biotinylated Abeta42 (UniProt P05067 672-713, biotinylated (site not stated)); assay: ELISA, biotinylated Abeta42 on neutravidin plates, ESBA212 0 to 500 nM
T2 construct: domain: Abeta42 (42 amino acid peptide); Captured on neutravidin-coated ELISA plates; also called beta-amyloid42
T2 sequence (P05067 672-713 limits assumed): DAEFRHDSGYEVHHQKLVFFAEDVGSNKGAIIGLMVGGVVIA
Description: as §1, §2

T1 sequence (P05067 672-711 limits assumed): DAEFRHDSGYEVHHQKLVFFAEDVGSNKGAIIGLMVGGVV

EC50 (Biotinylated Abeta40): 1 to 15 nM
EC50 (Biotinylated Abeta42): 1 to 15 nM
B1: ESBA212 (scFv)
scFv: ADIVLTQSPSSLSASVGDRVTLTCRASSSVNYMHWYQQRPGKPPKALIYATSNLASGVPSRFSGSGSGTEFTLTISSLQPEDVAVYYCQQWRTNPPTFGQGTKLEVKRGGGGSGGGGSGGGGSGGGGSQVQLVQSGPEVKKPGASVKVSCTASGYTFTEYTMHWVRQAPGQGLEWMGGVNPYNDNTSYIRKLQGRVTLTVDRSSSTAYMELTSLTSDDTAVYYCARYGGLRPYYFPMDFWGQGTLVTVSS
notes: Humanized scFv with the CDRs of mouse antibody 22C4 on framework 2.3; also called scFv ESBA212; single chain antibody ESBA212

Reference: patent US20110020220A1 (DELENEX THERAPEUTICS, published 2011)
